Positions count from the first letter of the chain named. Names may count otherwise.
B1: Eco57I E92Q: Eco57I restriction enzyme with mutation E92Q (protein, UniProt P25239 1-998, looked up, variant E92Q)
Type II restriction enzyme …: MNKKDQLQRLIDKYKSDIDYYRSARYNETQLRTDFLDQLFLILGWDITNAAGKPTNEREVLVEEGLKARAGENTKKPDYTFRLFSERKFFLQAKKPSVDISTTIEPALQVRRYGFTAKLKISVLSNFEYTAIYDCSNQVKETDSVANSRIKLYHFTELVDKFDEINNLIGRESVYTGHFDNEWSEIENKILRFSVDDLFLKQINDWRLLLANEFLQIKNELPEEKLNDLVQNYINSIVFLRVCEDRDLEEYETLYHFAQDKDFQSLVKKLKSSDKKYNSGLFSLEYIDELLSNANSCIWSIIEQLYFPQSTYSFSVFSSDILGNIYEIFLSEKVRIDELGNVKIQPKEEHIDRDVVTTPTHIVKEIIRNTVVEYCKGKSDIEILNSKFADIACGSGAFIIEAFQFIQDILIDYYIQNDKSKLQQISEHTYKLKFEVKREILCKCIYGIDKDYNATKACTFGLLLKLLEGETTETIGKDTPILPALDTNILFGNSLIDSGDKVKQEDIFSINPFDLTNYQFDVIVGNPPYMATEHMNQLTPKELDIYKRKYKSAYKQFDKYFLFIERSIQILKEYGYLGYILPSRFIKVDAGKKLRKFLSENKYLSKLISFGSHQVFKNKTTYTCLLFLNKENHDNFSFYEVKDFKKWLTREDKYLLSSTYQTSSLDSDTWVLEKKINDILKLMFSKSEQLGNIVGKSNVANGIQTSANKYYIHKEIKSENGFIYFEYDGIEYHIEKELTRPYFETNRSGDDSFYTYKDVEPNSFVVYPYKKVGERIQFIEYDELKRQYPKLFEFLQVVKVHLNDKKRSIKPDPTGPNEWYRYGRSQALENCDVDQKLIVGILSNGYKYSIDNHRTFVSSGGTAGYSIINIPNNVRYSIYYIQAILTSKYLEWFASIYGDIFRGRFVARGTKVQTRMPIPTIDFDDPKQKEIHDTISSKQQYLNKLYSQTQKSADRDKIIFERQFEQEKIQMDYLIKNLFDLGDLDSEIPTVEDLYKNL
B2: BamHI G91S: BamHI restriction enzyme with mutation G91S (protein, UniProt P23940 1-213, looked up, variant G91S)
Type II restriction enzyme …: MEVEKEFITDEAKELLSKDKLIQQAYNEVKTSICSPIWPATSKTFTINNTEKNCNGVVPIKELCYTLLEDTYNWYREKPLDILKLEKKKGSPIDVYKEFIENSELKRVGMEFETGNISSAHRSMNKLLLGLKHGEIDLAIILMPIKQLAYYLTDRVTNFEELEPYFELTEGQPFIFIGFNAEAYNSNVPLIPKGSDGMSKRSIKKWKDKVENK
B3: EcoRV Q69E: EcoRV restriction enzyme with mutation Q69E (protein, UniProt P04390 2-245, looked up, variant Q69E)
Type II restriction enzyme …: SLRSDLINALYDENQKYDVCGIISAEGKIYPLGSDTKVLSTIFELFSRPIINKIAEKHGYIVEEPKQENHYPDFTLYKPSEPNKKIAIDIKTTYTNKENEKIKFTLGGYTSFIRNNTKNIVYPFDQYIAHWIIGYVYTRVATRKSSLKTYNINELNEIPKPYKGVKVFLQDKWVIAGDLAGSGNTTNIGSIHAHYKDFVEGKGIFDSEDEFLDYWRNYERTSQLRNDKYNNISEYRNWIYRGRK
B4: EcoRV N70D: EcoRV restriction enzyme with mutation N70D (protein, UniProt P04390 2-245, looked up, variant N70D)
Type II restriction enzyme …: B3 Type II restriction enzyme … with E68Q, N69D

What was measured:
[1] = test system: sera binding to N6 mA coated ELISA plates; test: Competitive ELISA of antisera on N6 mA-BSA coated wells; parameters: species or system mice; conditions: 100 ng of competitor
Description: Competitive ELISA were performed as previously described. Itoh, K., M. Mizugaki, and N. Ishida, Preparation of a monoclonal antibody specific for 1-methyladenosine and its application for the detection of elevated levels of 1-methyladenosine in urines from cancer patients. Jpn J Cancer Res, 1988. 79(10): p. 1130-8. Wells were coated with the N6 mA-BSA conjugate ensuring that binding activity was not directed against the KLH component of the immunogen. Specificity was determined by incubating the antisera with either N6-Methyl-2-deoxyadenosine (specific inhibitor for the desired activity) or 2-Deoxyadenosine 5-monophosphate and adding it to the coated well. When antisera bound to the coated well, no competition was present.

[2] = test system: nucleic acid recognition or cleavage site; conditions: mutant restriction enzyme relative to wild type; cited from earlier work

| Molecule | inhibition of sera binding to N6 mA coated ELISA plates [1] [%] | % of WT cleavage activity [2] [%] |
| --- | --- | --- |
| CNc1ncnc2c1ncn2[C@H]1C[C@H](O)[C@@H](CO)O1 [N6 mA, N6-Methyl-2-deoxyadenosine] | 50 | – |
| B1 | – | <0.1 |
| B2 | – | 1 |
| B3 | – | <0.1 |
| B4 | – | 0 |

— patent US10190113B2, “Methods and compositions for segregating target nucleic acid from mixed nucleic acid samples” (FLIR DETECTION, INC., priority 2011, dated 2019)
